Assay [1] deals with T1, NiVM G head domain (residues 176-602) (Nipah virus Malaysia (NiVM), UniProt Q9IH62 176-602).
T1 sequence: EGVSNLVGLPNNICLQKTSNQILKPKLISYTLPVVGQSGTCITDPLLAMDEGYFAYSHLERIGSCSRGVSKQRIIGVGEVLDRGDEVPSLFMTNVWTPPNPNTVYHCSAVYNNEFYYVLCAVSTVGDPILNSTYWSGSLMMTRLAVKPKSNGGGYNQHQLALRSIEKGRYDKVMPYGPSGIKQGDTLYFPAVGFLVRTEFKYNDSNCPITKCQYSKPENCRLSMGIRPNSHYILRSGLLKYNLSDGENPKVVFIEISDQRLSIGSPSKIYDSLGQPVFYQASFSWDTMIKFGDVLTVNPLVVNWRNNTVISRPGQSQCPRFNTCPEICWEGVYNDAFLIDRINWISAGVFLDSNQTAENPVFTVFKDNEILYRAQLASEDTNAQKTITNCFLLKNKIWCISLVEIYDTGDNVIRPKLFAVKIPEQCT
The assay is described as follows: BLI. In general terms: BLI is a label-free optical method that tracks binding on a fibre tip over time.

Assay [2] deals with deglycosylated NiVM G head domain without the His-tag (for crystallization) (Nipah virus Malaysia (NP_112027), UniProt Q9IH62). Briefly: crystal structure.
The target in assay [3] is T2, NiVM G head domain (residues 176-602) (Nipah virus Malaysia (NiVM), UniProt Q9IH62). Briefly: BLI.
Assay [4] concerns the target NiVM G ectodomain (residues 96-602) (Nipah virus Malaysia (NP_112027), UniProt Q9IH62). The assay is described as follows: ELISA. (In general: In an ELISA, binding on a coated surface is turned into a signal by an enzyme label.)
The target of assay [5] is HeV G head domain (residues 176-605) (Hendra virus (NP_047112, isolate …, UniProt O89343)). The assay is described as follows: ELISA.
Chain of HeV G head domain (residues 176-605) (Hendra virus (O89343 176-604): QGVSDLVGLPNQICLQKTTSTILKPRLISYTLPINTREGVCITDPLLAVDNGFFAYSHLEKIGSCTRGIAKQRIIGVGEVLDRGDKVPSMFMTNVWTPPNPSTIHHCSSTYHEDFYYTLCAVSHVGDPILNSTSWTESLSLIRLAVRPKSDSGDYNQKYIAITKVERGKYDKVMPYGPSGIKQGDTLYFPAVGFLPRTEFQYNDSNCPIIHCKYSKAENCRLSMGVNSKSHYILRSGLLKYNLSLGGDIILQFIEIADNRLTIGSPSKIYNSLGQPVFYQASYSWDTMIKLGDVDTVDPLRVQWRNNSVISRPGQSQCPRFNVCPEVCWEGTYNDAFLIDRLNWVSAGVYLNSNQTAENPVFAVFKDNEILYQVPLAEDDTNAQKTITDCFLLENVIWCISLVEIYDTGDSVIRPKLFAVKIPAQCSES
The target of assay [6] is LayV G head domain (residues 176-625) (Langya virus (UUV47206), UniProt A0AAX3C924). Briefly: ELISA.
For assay [7], the target named is MojV G head domain (residues 176-625) (Mòjiāng virus (YP_009094095), UniProt W8TIR7). Briefly: ELISA.
Assay [8] addresses T2, NiVM G head domain (residues 176-602). The assay is described as follows: cryo-EM structure.

B1: human ephrin-B2 (residues 27-167) (receptor)
chain: SIVLEPIYWNSSNSKFLPGQGLVLYPQIGDKLDIICPKVDSKTVGQYEYYKVYMVDKDQADRCTIKKENTPLLNCAKPDQDIKFTIKFQEFSPNLWGLEFQKNKDYYIISTSNGSLEGLDNQEGGVCQTRAMKILMKVGQD
Take B1: the binding result in assay [1] was “binds”.

B2: LN1F9 Fab (Fab, V domains shown)
VH: EVKLVESGGGLVKPGGSLKLSCAASGFSFRNYAMSWVRQSPEKRLEWVAEVSSGGGYTYYPDTVTGRFTISRDNAKNILYLEMSSLRSEDTAMYYCTRDPDSSGYLAWFAYWGQGTLVTVSA
VL: DILLTQSPASLSASVGETVTITCRASENINSYLAWYQQKQGKSPQLLVYNAKTLAEGVPSRFSGSGSDTQFSLKINTLQPEDFGTYYCQHHSGTPYTFGGGTKLEIK
B2: in assay [2], the binding result is on record as “binds”.

B3: LN1F9 mAb (IgG) (antibody, V domains shown)
VH: B2 VH
VL: B2 VL
On to B3, for which the binding result is reported as “binds” in assay [3]; “binds” in assay [4]; “binds” in assay [5]; “no binding (tested: 1 μg/mL)” in assay [6]; “no binding (tested: 1 μg/mL)” in assay [7].

B4: S2B10 mAb (IgG) (antibody, V domains shown)
VH: QMQLQESGPGLVKPSQSLSLTCTVTGYSITSDYAWNWIRQFPRNKLEWMGFITYSGSTSYNPSLKSRISLTRDTSKNQFFLQLSSVTTEDTATYYCARSGANWDWFAYWGQGTLVTVSA
VL: DIQMTQSPASLAVSLGQRATISCRASESVDNYGNSFMHWYQQKPGQPPKLLIYRASKLESGIPARFSGSGSRTDFTLTINPVEADDVATYHCQQSNEDPWTFGGGTKLEIK
B4: the binding result in assay [3] is reported as “binds”; in assay [4], “binds”; in assay [6], “no binding (tested: 1 μg/mL)”; in assay [7], “no binding (tested: 1 μg/mL)”.

B5: S2B10 Fab (Fab, V domains shown)
VH: B4 VH
VL: B4 VL
As to B5, the binding result in assay [8] is recorded as “binds”.

B6: LN3D3 Fab (Fab, V domains shown)
VH: EVKLEESGPELVKPGASVKMSCKASGYTFTNYVMHWVKQKPGQGLEWIGYVNPYNDGTQYNEKFRDKATLTSDKSSSTVYMELNSLTSEDSAVYYCTRGDYPYWVFEVWGAGTTVTVSS
VL: EIQMTQSPATLSVTPGDSVSLSCRASQSISNNLHWYQQKSHESPRLLIKYASQSISGIPSRFSGSGSGTDFTLSINNLETEDFGMYFCQHSDSWPFTFGSGTKLEIK
Consider B6, for which the binding result in assay [8] is “binds”.

B7: LN3D3 mAb (IgG) (antibody, V domains shown)
VH: B6 VH
VL: B6 VL
As to B7, the binding result in assay [3] is on record as “binds”; in assay [4], “binds”; in assay [6], “no binding (tested: 1 μg/mL)”; in assay [7], “no binding (tested: 1 μg/mL)”.

B8: S1E2 mAb (IgG) (antibody, V domains shown)
VH: QMQLQESGPGLVKPSQSLSLTCSVTGYSITSGYYWNWIRQFSGNKLEWMGYINHDGSKNYNPSLKNRISITRDTSKNQFFLKLNSVTTEDTATYYCARDYGSYYYPMDYWGQGTSVTVSS
VL: EIVLTQSPPIMSASPGEKVTITCSASSSVTFMHWFQQKPGTSPKLWIFSTSNLASGVPARFSGSGSGTSYSLTISRMEAEDAATYYCQQRSSYPFTFGSGTKLEIK
As for B8, the binding result was “binds” in assay [3], “binds” in assay [4], “no binding (tested: 1 μg/mL)” in assay [6] and “no binding (tested: 1 μg/mL)” in assay [7].

B9: S1E2 Fab (Fab, V domains shown)
VH: B8 VH
VL: B8 VL
B9: the binding result in assay [8] is listed as “binds”.

The record behind these values is publication PMC12780214 (NPJ Vaccines, 2025).
